Source: the RNAGym collection of RNA variant scans (doi:10.7554/elife.80360)

B1: CPEB3 Ribozyme (parent)
chain: GGGGGCCACAGCAGAAGCGUUCACGUCGCGGCCCCUGUCAGAUUCUGGUGAAUCUGCGAAUUCUGCUGU

Variants of: B1
Experiment: self-cleavage, relative activity (ratio to wild type); higher = more cleavage; co-transcriptional

| Variant | self-cleavage |
| --- | --- |
| A40C G48C | 0.716 |
| G41C C63U | 0.685 |
| G41C C63G | 0.382 |
| U38C C66U | 0.947 |
| C39U G48C | 0.939 |
| C39G G50A | 0.962 |
| C39G G50U | 0.957 |
| G41U G47A | 1.02 |
| C39G U67G | 0.965 |
| C39G U67A | 0.927 |
| G41A U46G | 0.904 |
| G41U C63G | 0.43 |
| G41U C63A | 0.37 |
| G41C A59U | 0.271 |
| A40C G58A | 0.659 |
| A40G G68U | 0.987 |
| C39A U64G | 0.61 |
| C39A U64A | 0.467 |
| A40C C54G | 0.323 |
| U38C G47C | 0.938 |
| C39A G58C | 0.907 |
| G41C G65C | 0.316 |
| G41A A51G | 0.797 |
| G41A A51C | 0.483 |

| Variant | self-cleavage |
| --- | --- |
| A40U G50U | 0.749 |
| G41A C63A | 0.329 |
| C39G C57G | 0.361 |
| C39G C57A | 0.303 |
| C39G C57U | 0.327 |
| A40C U69G | 0.875 |
| U38G C57G | 0.121 |
| C39G U46C | 0.903 |
| A40C A60G | 0.225 |
| A40C A60C | 0.34 |
| C39U G50A | 0.91 |
| A40U A52C | 0.561 |
| A40U A52U | 0.477 |
| G41A C45G | 0.537 |
| G41A C45A | 0.37 |
| U38G C54G | 0.302 |
| U38G C54U | 0.29 |
| A40U G56U | 0.552 |
| A40U G56C | 0.475 |
| A40C G65U | 0.354 |
| C39G C63G | 0.513 |
| U38C G50U | 0.952 |
| C39G A40G | 0.812 |
| C39G U55G | 0.863 |

| Variant | self-cleavage |
| --- | --- |
| C39G U55C | 0.693 |
| G41U C45U | 0.715 |
| G41U U53A | 0.616 |
| C39U G68A | 0.99 |
| C39A G68A | 0.925 |
| A40U A60G | 0.47 |
| U38G C39U | 0.322 |
| U38G C39G | 1.01 |
| G41C G48A | 0.949 |
| C39G U61C | 0.394 |
| C39U A42U | 0.736 |
| G41U A51C | 0.588 |
| U38G U46G | 0.308 |
| A40C A52U | 0.365 |
| A40C A52C | 0.347 |
| G41U A60C | 0.414 |
| G41C G58C | 0.85 |
| G41C G58U | 0.962 |
| G41C G50U | 0.698 |
| G41C G50A | 0.693 |
| G41C G50C | 0.325 |
| C39G U49G | 0.994 |
| G41U G56U | 0.343 |
| G41U G56C | 0.357 |

| Variant | self-cleavage |
| --- | --- |
| U38G G41A | 0.245 |
| U38G G41U | 0.238 |
| A40C A51C | 0.359 |
| A42C A51C | 0.832 |
| A42C A51U | 0.952 |
| A40C G68C | 0.749 |
| A40C G68U | 0.806 |
| U38C U62A | 0.791 |
| A40C U64C | 0.357 |
| A40C U64G | 0.403 |
| A40G A52C | 0.87 |
| A40G A52G | 0.903 |
| A40G A52U | 0.851 |
| C39A G41A | 0.383 |
| C39A G41C | 0.396 |
| G41U U67A | 0.888 |
| G41U U67G | 0.865 |
| C39A U43G | 0.295 |
| C39G G68U | 0.988 |
| G41A A42U | 0.49 |
| C39U U46A | 0.934 |
| C39U A40U | 0.624 |
| G41A C54A | 0.904 |
| G41U A59U | 0.453 |

| Variant | self-cleavage |
| --- | --- |
| A40G C45G | 0.942 |
| G41C U67C | 0.776 |
| U38C U61G | 0.759 |
| U38C U61A | 0.759 |
| G41A U44C | 0.413 |
| G41A U44A | 0.302 |
| U38G G65C | 0.161 |
| C39U C66G | 0.579 |
| G41A U49A | 0.885 |
| U38G A60C | 0.137 |
| G41A U53C | 0.318 |
| A40G U64G | 0.796 |
| A40G U64C | 0.737 |
| C39G C66A | 0.531 |
| G41A G48C | 0.876 |
| G41A G48U | 0.987 |
| A40G A59U | 0.691 |
| U38G C45G | 0.27 |
| C39U U64A | 0.616 |
| C39G A59G | 0.947 |
| U38G U53G | 0.255 |
| U38G U53C | 0.24 |
| U38G U53A | 0.287 |
| C39A C45G | 0.659 |

| Variant | self-cleavage |
| --- | --- |
| A40U C57A | 0.333 |
| A40U C57U | 0.302 |
| G41A A60G | 0.464 |
| A40U U64C | 0.388 |
| G41U U62G | 0.391 |
| G41C U62A | 0.294 |
| G41C U49G | 0.899 |
| A40C G50A | 0.423 |
| A40C G50C | 0.424 |
| A42C A59C | 0.528 |
| A42C A59U | 0.633 |
| A42C A59G | 0.961 |
| A40G C57U | 0.311 |
| A40G C57A | 0.34 |
| C39A A42U | 0.551 |
| A40C A59U | 0.381 |
| C39U U61G | 0.577 |
| C39A U69C | 1.01 |
| C39A U69A | 0.908 |
| U38C U69G | 1.05 |
| G41A G50U | 0.686 |
| G41A G50C | 0.453 |
| G41U U69C | 0.697 |
| C39A G47C | 0.945 |

| Variant | self-cleavage |
| --- | --- |
| C39U C45G | 0.74 |
| C39U C45A | 0.759 |
| U38C U49A | 0.955 |
| C39U G65C | 0.438 |
| C39U C57A | 0.34 |
| C39U C57G | 0.403 |
| A40U G48A | 0.977 |
| G41A G56A | 0.77 |
| G41C G47C | 0.939 |
| G41C G47U | 0.935 |
| A40C G41U | 0.22 |
| G41C A51G | 0.687 |
| C39A C57A | 0.337 |
| G41A A59G | 0.774 |
| G41A A59U | 0.332 |
| G41C C54A | 0.931 |
| G41C C54U | 0.906 |
| G41C C54G | 0.98 |
| G41U C66U | 0.75 |
| C39U G56U | 0.922 |
| G41U U44C | 0.366 |
| U38G G48A | 0.21 |
| G41A U64A | 0.419 |
